7 molecules from patent US20240158477A1 (BIODURO JIANGSU, published 2024) can be followed below.

Experiment [1] deals with T1, COVID-19 S.P. RBD (Cat. #40592-V08B, SB) (SARS-CoV-2, UniProt P0DTC2 319-541).
For experiment [2], the target named is T1, COVID-19 S.P. RBD (Cat. #40592-V08B, SB). The source holds these as a separate data set.
The target in experiment [3] is SARS-CoV-2 S protein (wildtype) (SARS-CoV-2, UniProt P0DTC2 14-1273). Kind of experiment: cell-based or functional assay.
Experiment [4] addresses RBD-Fc (SARS-CoV-2 S protein amino acids 319-541 with human IgG1 Fc) (SARS-CoV-2; human, UniProt P0DTC2 319-541).

Where a chain is given by its changes, count along the chain named. Where two headings read alike, the source gives them in different places.

B1: Fc tagged nanobody VHH80 (Fc fusion)
chain: EVQLVESGGGLVQPGGSLRLSCAASGFISNFNLMGWFRQAPGKGRELVATINSFDDITYYPDSVEGRFTISRDNAKRMVYLQMNSLRAEDTAVYYCAAEVRSSLDYALWTSRRSAFSYWGQGTQVTVSSGSGGGGSGGGGS
In experiment [1], B1 came in with a Kd of 4.27 nM.

B2: Fc tagged nanobody VHH34 (Fc fusion)
chain: EVQLVESGGGLVQPGGSLRLSCAASGFIYSFNIMGWFRQAPGKGRELVASINWFSDITYYPDSVEGRFTISRDNAKRMVYLQMNSLRAEDTAVYYCAAYLLRGDDRYYATYSYWGQGTQVTVSSGSGGGGSGGGGS
Take B2: the Kd in experiment [1] came to 2.79 nM.

B3: Fc tagged nanobody VHH82 (Fc fusion)
chain: B2 chain with N52S, W53S, F54Y, S55D
On to B3, for which binding in experiment [1] was put at a Kd of 2.29 nM.

B4: Fc tagged nanobody VHH35 (Fc fusion)
chain: EVQLVESGGGLVQPGGSLRLSCAASGSIYSFNFMGWFRQAPGKGRELVATINSFDDITYYPDSVEGRFTISRDNAKRMVYLQMNSLRAEDTAVYYCAVLGERTGISYGSAFDYWGQGTQVTVSSGSGGGGSGGGGS
On to B4, for which the Kd in experiment [2] was 0.535 nM.

B5: Fc tagged nanobody VHH43 (Fc fusion)
chain: EVQLVESGGGLVQPGGSLRLSCAASGFISDADIMGWFRQAPGKGRELVASINSYDSITYYPDSVEGRFTISRDNAKRMVYLQMNSLRAEDTAVYYCAVRVHSRDFSYWGQGTQVTVSSGSGGGGSGGGGS
Regarding B5, in experiment [1], the Kd was 1.44 nM. That is a single-digit nanomolar value.

B6: Fc tagged nanobody VHH60 (Fc fusion)
chain: EVQLVESGGGLVQPGGSLRLSCAASGRTFRVNLMGWFRQAPGKGRELVASINGFDDITYYPDSVEGRFTISRDNAKRMVYLQMNSLRAEDTAVYYCAAYDSDYDGRLFNYWGQGTQVTVSSGSGGGGSGGGGS
In the case of B6, in experiment [3], the “IC50, authentic SARS-CoV-2 neutralization on Vero-E6 cells (viral RNA by RT-PCR)” value was determined as 1.53 nM and the “IC50, pseudovirus neutralization (luciferase activity in Caco-2 cells)” value was found to be 7.63 nM. Further, in experiment [1], binding was put at a Kd of 2.56 nM. Moreover, in experiment [4], the “EC50 (read off the curve)” value is about 0.4 nM.

B7: Fc tagged nanobody VHH79 (Fc fusion)
chain: EVQLVESGGGLVQPGGSLRLSCAASGFTSRNYFMGWFRQAPGKGRELVATINSLSSITYYPDSVEGRFTISRDNAKRMVYLQMNSLRAEDTAVYYCAVYTPTTGPGEGSYTPWHDYWGQGTQVTVSSGSGGGGSGGGGS
On to B7, for which the affinity in experiment [1], expressed as Kd, was 3.44 nM.
